In the Human Domainome abundance scans (Beltran et al. 2025):
± gives the uncertainty stated by the source.

B1: Far upstream element-binding protein 1, residues 98 to 169; numbered along this chain, Q96AE4 (parent)
chain: RSVMTEEYKVPDGMVGFIIGRGGEQISRIQQESGCKIQIAPDSGGLPERSCMLTGTPESVQSAKRLLDQIVE

Variants of: B1
Test: abundance fitness (aPCA) (normalised: wild type 0, dead -1); higher = more abundant; growth selection in yeast, the domain comes from the species named
Settings: Homo sapiens

Row | Variant | abundance fitness
1 | M14W | -0.093 ± 0.03
2 | M14N | -0.105 ± 0.042
3 | G13V | -0.218 ± 0.027
4 | G13K | 0 ± 0.034
5 | E32Y | -0.235 ± 0.048
6 | E32D | -0.076 ± 0.044
7 | V60H | -0.525 ± 0.059
8 | E58N | -0.107 ± 0.049
9 | E58G | -0.05 ± 0.024
10 | E58H | -0.052 ± 0.044
11 | V15G | -0.136 ± 0.027
12 | S2C | -0.085 ± 0.037
13 | S2I | -0.077 ± 0.048
14 | G22M | -0.129 ± 0.039
15 | G22N | 0.048 ± 0.047
16 | G22C | -0.103 ± 0.04
17 | F17N | 0.022 ± 0.038
18 | F17H | -0.003 ± 0.035
19 | F17P | 0.01 ± 0.028
20 | F17V | -0.005 ± 0.024
21 | F17L | -0.008 ± 0.024
22 | P57L | -0.048 ± 0.029
23 | P57R | -0.021 ± 0.024
24 | P57A | -0.017 ± 0.028

Row | Variant | abundance fitness
25 | S33C | -0.158 ± 0.037
26 | Q69G | -0.002 ± 0.023
27 | Q69S | -0.018 ± 0.026
28 | K9H | -0.093 ± 0.041
29 | K9F | -0.033 ± 0.033
30 | K9G | -0.195 ± 0.023
31 | G34L | -0.147 ± 0.031
32 | G34A | -0.1 ± 0.028
33 | G34I | -0.316 ± 0.06
34 | P47K | -0.004 ± 0.04
35 | P47A | -0.012 ± 0.031
36 | P47R | -0.054 ± 0.024
37 | D68K | -0.001 ± 0.032
38 | D68V | -0.078 ± 0.026
39 | D68N | -0.025 ± 0.033
40 | G55H | -0.721 ± 0.13
41 | G55L | -1.51 ± 0.12
42 | G55I | -1.12 ± 0.14
43 | L66W | -0.123 ± 0.027
44 | L66M | -0.006 ± 0.033
45 | L66R | -0.053 ± 0.024
46 | L66V | -0.11 ± 0.026
47 | L66Y | -0.079 ± 0.04
48 | Q31M | -0.061 ± 0.04

Row | Variant | abundance fitness
49 | Q31L | -0.043 ± 0.028
50 | S62A | -0.03 ± 0.026
51 | S59K | -0.046 ± 0.033
52 | S59V | -0.116 ± 0.028
53 | L67P | -0.484 ± 0.039
54 | L67D | -0.412 ± 0.041
55 | L67T | -0.534 ± 0.037
56 | V71M | -0.088 ± 0.038
57 | V71P | -0.047 ± 0.035
58 | V71G | -0.061 ± 0.024
59 | V71Q | -0.008 ± 0.036
60 | V71Y | -0.183 ± 0.042
61 | S27K | 0.036 ± 0.037
62 | S27D | -0.046 ± 0.041
63 | D12C | -0.057 ± 0.038
64 | A40Y | -0.088 ± 0.081
65 | A40N | -0.103 ± 0.055
66 | G20C | -0.167 ± 0.038
67 | E72K | -0.129 ± 0.043
68 | E72Y | -0.01 ± 0.065
69 | E72A | 0.04 ± 0.034
70 | E72D | -0.048 ± 0.042
71 | G16W | -0.09 ± 0.03
72 | G16K | -0.028 ± 0.038

Row | Variant | abundance fitness
73 | R65K | -0.006 ± 0.034
74 | R65Q | -0.02 ± 0.031
75 | R65V | -0.002 ± 0.026
76 | E7L | -0.031 ± 0.32
77 | E7M | -0.281 ± 0.25
78 | E7V | -0.106 ± 0.14
79 | S43Y | -0.124 ± 0.043
80 | S43I | -0.024 ± 0.044
81 | S43V | -0.068 ± 0.029
82 | Q25D | -0.071 ± 0.04
83 | Q25V | -0.07 ± 0.027
84 | Q25W | -0.145 ± 0.028
85 | E6M | -0.01 ± 0.034
86 | E6P | -0.625 ± 0.039
87 | E6T | 0.029 ± 0.03
88 | E6N | -0.177 ± 0.048
89 | K36L | -0.026 ± 0.027
90 | K36Q | -0.04 ± 0.034
91 | K64G | -0.179 ± 0.025
92 | K64T | -0.065 ± 0.03
93 | K64W | -0.252 ± 0.03
94 | K64C | -0.137 ± 0.038
95 | K64L | -0.231 ± 0.026
96 | I26W | -0.158 ± 0.03

Row | Variant | abundance fitness
97 | I26S | -0.239 ± 0.033
98 | I26C | -0.103 ± 0.043
99 | C35D | -0.81 ± 0.06
100 | C35P | -0.986 ± 0.051
101 | C35H | -0.835 ± 0.059
102 | C35Q | -0.936 ± 0.053
103 | I37E | -0.937 ± 0.055
104 | R49I | -0.133 ± 0.045
105 | L53N | -1.05 ± 0.11
106 | L53R | -1.05 ± 0.043
107 | L53H | -0.99 ± 0.13
108 | P11V | -0.17 ± 0.026
109 | P11N | -0.125 ± 0.041
110 | P11T | -0.124 ± 0.028
111 | I70R | -0.013 ± 0.024
112 | I70Q | -0.019 ± 0.031
113 | I70C | 0.004 ± 0.038
114 | I70H | -0.062 ± 0.042
115 | I70V | 0.001 ± 0.027
116 | I70S | -0.046 ± 0.028
117 | I70E | 0.001 ± 0.03
118 | I70F | 0.024 ± 0.045
119 | R21P | -0.027 ± 0.13
120 | Q38P | -0.844 ± 0.045

Row | Variant | abundance fitness
121 | Q38H | -0.034 ± 0.049
122 | Q38I | 0.001 ± 0.054
123 | Q38C | -0.005 ± 0.037
124 | E48N | -0.019 ± 0.05
125 | E48S | -0.057 ± 0.03
126 | Y8V | -0.069 ± 0.029
127 | Y8E | -0.535 ± 0.039
128 | I19V | 0.012 ± 0.027
129 | I19E | 0.018 ± 0.032
130 | I19Y | -0.068 ± 0.051
131 | S50Q | -0.025 ± 0.033
132 | S50V | -0.017 ± 0.027
133 | S50C | -0.015 ± 0.033
134 | S50T | -0.015 ± 0.032
135 | S50I | 0.07 ± 0.052
136 | S50Y | -0.117 ± 0.038
137 | L46K | -0.006 ± 0.037
138 | R28K | -0.028 ± 0.038
139 | R28G | -0.093 ± 0.024
140 | T5N | -0.063 ± 0.041
141 | T5G | -0.101 ± 0.024
142 | T5F | -0.006 ± 0.046
143 | I39M | -0.026 ± 0.036
144 | I39K | -0.445 ± 0.043

Row | Variant | abundance fitness
145 | I39H | -0.266 ± 0.06
146 | G45M | -0.093 ± 0.041
147 | G45C | -0.034 ± 0.045
148 | G45E | -0.023 ± 0.033
149 | M4L | -0.033 ± 0.025
150 | T56Y | -0.066 ± 0.056
151 | G23I | -0.17 ± 0.054
152 | P41N | -0.051 ± 0.047
153 | P41H | -0.124 ± 0.049
154 | P41L | -0.155 ± 0.027
155 | V3C | -0.048 ± 0.033
156 | A63H | -1.09 ± 0.089
157 | A63G | -0.069 ± 0.023
158 | A63F | -0.941 ± 0.093
159 | A63T | -0.303 ± 0.032
160 | R1E | -0.194 ± 0.054
161 | R1S | -0.113 ± 0.028
162 | R1W | -0.269 ± 0.035
163 | R1A | -0.125 ± 0.043
164 | I18Y | -0.21 ± 0.046
165 | D42S | -0.024 ± 0.029
166 | D42I | -0.085 ± 0.048
167 | D42R | -0.027 ± 0.025
